Reference: US20150266963A1 (ARGEN X B V, published 2015)
Read-outs that look alike come from different tables or passages of the source.

Columns and labels:
[1] = biological target: T1, human CD70 expressed on the surface of cells (human, UniProt P32970 1-193); test: cell-based or functional assay
T1 sequence (looked up): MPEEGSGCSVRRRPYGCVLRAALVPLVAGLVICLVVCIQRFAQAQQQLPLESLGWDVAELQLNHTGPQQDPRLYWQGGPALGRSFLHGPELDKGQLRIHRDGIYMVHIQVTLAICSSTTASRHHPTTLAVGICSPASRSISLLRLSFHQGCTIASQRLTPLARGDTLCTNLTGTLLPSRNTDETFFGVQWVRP

[2] = biological target: T1, human CD70 expressed on the surface of …; test: cell-based or functional assay; remark: listed apart in the source
[3] = biological target: T1, human CD70 expressed on the surface of …; test: cell-based or functional assay; remark: listed apart in the source
[4] = biological target: T1, human CD70 expressed on the surface of …; test: flow cytometry on 786-O cells; anti-human Fc-FITC
Description: Fluorescence of 10,000 cells/condition was measured using a flow cytometer and the median fluorescence was plotted.

[5] = biological target: T2, rhesus recombinant CD70 (FLAG-TNC-rhesus CD70) (rhesus); test: inhibition ELISA; FLAG-TNC-rhesus CD70; competitor CD27-Fc
T2 construct: also called rhesus Flag-TNC-CD70
From the text: In this assay, Flag-TNC-CD70 is captured by an anti-Flag mAb and binding of CD27-Fc is detected via a biotinylated anti-CD27 mAb and strep-HRP in the absence or presence of CD70 Fabs (FIGS. 2 and 3) or CD70 mAbs (FIG. 4). In FIG. 2B it can be seen that 27B3, which has an identical VH as 9D1, but contains a somewhat different light chain, seems to block binding of CD27 to CD70 more efficiently, which was in line with the better off rate of this Fab as measured on Biacore (data not shown). Table 3 indicates the blocking potency (expressed as IC50) for the various llama-human chimeric mAbs tested in the CD70 inhibition ELISA. […] FIG. 3 is a composite of an experiment testing llama CD70 Fabs for blocking activity (in the inhibition ELISA, see white bars) and for CD70 binding (binding ELISA, black bars). For the binding ELISA, Flag-TNC-CD70 is captured by an anti-Flag mAb and binding of the Fabs is detected using an anti-myc-HRP mAb, which recognizes the MYC tag fused to the C-terminus of the Fd fragment. For comparison purposes, known monoclonal antibodies to CD70 (SGN70 described in US 2010/0129362 A1, clone 1F6; and MDX69A7 described in WO2008/074004 FIGS. 5A and 5B) were tested in parallel. […] Of interest is clone 59D10, which as Fab has no blocking activity, but when converted into a chimeric IgG was antagonistic (see Table 3). […]

[6] = biological target: T3, recombinant human CD70 (Flag-TNC-CD70) (human, UniProt P32970 39-193); test: inhibition ELISA; Flag-TNC-CD70 captured by anti-Flag mAb; competitor CD27-Fc
T3 construct: extracellular domain; Captured by anti-Flag mAb in ELISA; as 'recombinant human CD70' immobilised on Biacore CM5 chips; TNC is for trimerisation; also called recombinant CD70; human recombinant CD70; not shown: Flag tag and TNC trimerisation domain
T3 sequence (looked up): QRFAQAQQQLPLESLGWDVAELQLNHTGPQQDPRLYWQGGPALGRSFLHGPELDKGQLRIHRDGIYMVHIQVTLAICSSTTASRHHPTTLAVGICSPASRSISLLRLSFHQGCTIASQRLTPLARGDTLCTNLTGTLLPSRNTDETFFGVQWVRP
Description: From selected phage transfected into TG1, individual colonies were picked randomly for growth in 96 well plates. After IPTG induction according to standard protocols periplasmic fractions (penis) containing Fabs were prepared. […] In this assay, Flag-TNC-CD70 is captured by an anti-Flag mAb and binding of CD27-Fc is detected via a biotinylated anti-CD27 mAb and strep-HRP in the absence or presence of CD70 Fabs (FIGS. 2 and 3) or CD70 mAbs (FIG. 4). In FIG. 2B it can be seen that 27B3, which has an identical VH as 9D1, but contains a somewhat different light chain, seems to block binding of CD27 to CD70 more efficiently, which was in line with the better off rate of this Fab as measured on Biacore (data not shown). Table 3 indicates the blocking potency (expressed as IC50) for the various llama-human chimeric mAbs tested in the CD70 inhibition ELISA. […] FIG. 3 is a composite of an experiment testing llama CD70 Fabs for blocking activity (in the inhibition ELISA, see white bars) and for CD70 binding (binding ELISA, black bars). For the binding ELISA, Flag-TNC-CD70 is captured by an anti-Flag mAb and binding of the Fabs is detected using an anti-myc-HRP mAb, which recognizes the MYC tag fused to the C-terminus of the Fd fragment. For comparison purposes, known monoclonal antibodies to CD70 (SGN70 described in US 2010/0129362 A1, clone 1F6; and MDX69A7 described in WO2008/074004 FIGS. 5A and 5B) were tested in parallel. […] Of interest is clone 59D10, which as Fab has no blocking activity, but when converted into a chimeric IgG was antagonistic (see Table 3). Amino acid sequences of the VH and VL domains of binding and blocking llama-derived Fab clones are shown elsewhere herein (Tables 6-9).

[7] = biological target: T3, recombinant human CD70 (Flag-TNC-CD70); test: as above; remark: listed apart in the source
Procedure, shortened: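 Flag-TNC-CD70 captured by anti-Flag mAb, then incubated with CD27-Fc with or without titrated Fabs (periplasmic extracts) or chimeric mAbs. Bound CD27-Fc detected via biotinylated anti-CD27 mAb and strep-HRP, and blocking potency expressed as IC50.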

B1: 27B3 chimeric llama-human mAb (antibody, human IgG1, V domains shown)
VH: EVQLVESGGGLVQPGGSLRLSCAASGFTFSVYYMNWVRQAPGKGLEWVSDINNEGGTTYYADSVKGRFTISRDNAKNTLTLQMNSLKPEDTALYYCVRDAGYSNHVPIFDSWGQGTQVIVAS
VL: QAVVTQEPSLTVSPGGTVTLTCGLKSGSVTSTNFPTWYQQTPGQAPRLLIYNTNTRHSGVPSRFSGSISENKAALTITGAQPEDEAEYFCALFISNPSVEFGGGTQLTVLS
notes: also called SIMPLE antibody 27B3; mAb 27B3
- IC50, IL-8 secretion in Raji / HT1080-CD27 co-culture assay [1]: 0.033 nM
- IC50 (ng/ml), IL-8 secretion in Raji / HT1080-CD27 co-culture assay [2]: 5 ng/mL
- Raji co-culture assay IC50 relative to 27B3 [3]: 1 fold of 27B3
- EC50 [4]: 0.24 nM
- IC50 [5]: 0.15 µg/mL
- IC50 [6]: 0.25 nM
- IC50 [7]: 0.038 µg/mL
